We go through 19 molecules from CN111196850A (BEIJING HUIZHI HEYUAN BIOTECHNOLOGY CO LTD, dated 2020).

Positions count from the first letter of the chain named.

Sequences and labels used below:
B1: 鼠源TSLP单克隆抗体7A9E3G10E5(6K/3H) (antibody, mouse IgG1, kappa)
heavy: EVKLVETGAELVRPGALVKLSCKTSGFNIKDYYMHWVKQRPEQGLEWIGWIDPENGNTIYDPKFQGKASITADTSSNTAYLHLSSLTSEDTAVYYCAREGDGNYLWFAYWGQGTLVTVSAAKTTPPSVYPLAPGSAAQTNSMVTLGCLVKGYFPEPVTVTWNSGSLSSGVHTFPAVLESDLYTLSSSVTVPSSPRPSETVTCNVAHPASSTKVDKKIVPRDCGCKPCICTVPEVSSVFIFPPKPKDVLTITLTPKVTCVVVDISKDDPEVQFSWFVDDVEVHTAQTQPREEQFNSTFRSVSELPIMHQDWLNGKEFKCRVNSAAFPAPIEKTISKTKGRPKAPQVYTIPPPKEQMAKDKVSLTCMITDFFPEDITVEWQWNGQPAENYKNTQPIMNTNGSYFVYSKLNVQKSNWEAGNTFTCSVLHEGLHNHHTEKSLSHSPGK
light: DILLTQSPSSLSASLGGKVIITCKASQDINKYIAWYQHKPGKGLRLLIHYTSTLEPGIPSRFSGSGSGRDYSFSISNLEPEDIATYYCLHYDNLLTFGDGTKLELKRADAAPTVSIFPPSSEQLTSGGASVVCFLNNFYPKDINVKWKIDGSERQNGVLNSWTDQDSKDSTYSMSSTLTLTKDEYERHNSYTCEATHKTSTSPIVKSFNRNEC
notes: also called 鼠源单克隆抗体6K/3H
B2: 鼠源TSLP单克隆抗体3A1H2B2E1(1K/1H) (antibody, mouse IgG1, kappa)
heavy: EVKLVESGGGLVQPGGSRKLSCAASGFTFSSFGMHWVRQAPEKGLEWVAYISSGSSIIHYADTVKGRFTISRDNPKNTLFLQMTSLRSEDTAMYYCAREPYGYDVYYFDYWGQGTTITVSSAKTTPPSVYPLAPGSAAQTNSMVTLGCLVKGYFPEPVTVTWNSGSLSSGVHTFPAVLESDLYTLSSSVTVPSSPRPSETVTCNVAHPASSTKVDKKIVPRDCGCKPCICTVPEVSSVFIFPPKPKDVLTITLTPKVTCVVVDISKDDPEVQFSWFVDDVEVHTAQTQPREEQFNSTFRSVSELPIMHQDWLNGKEFKCRVNSAAFPAPIEKTISKTKGRPKAPQVYTIPPPKEQMAKDKVSLTCMITDFFPEDITVEWQWNGQPAENYKNTQPIMNTNGSYFVYSKLNVQKSNWEAGNTFTCSVLHEGLHNHHTEKSLSHSPGK
light: DIVMTQSPASLAVSLGQRATISCKASQSIDYDGDSYMNWYQQKPGQPPKLLIYAASNLDSGIPARFSGSGSGTDFTLNIHPVEEEDAATYYCQQSNEDPYTFGGGTKLEIKRADAAPTVSIFPPSSEQLTSGGASVVCFLNNFYPKDINVKWKIDGSERQNGVLNSWTDQDSKDSTYSMSSTLTLTKDEYERHNSYTCEATHKTSTSPIVKSFNRNEC
notes: also called 鼠源单克隆抗体1K/1H
B3: 嵌合抗体6K-3H (antibody, human IgG1, kappa)
heavy: not shown
light: DILLTQSPSSLSASLGGKVIITCKASQDINKYIAWYQHKPGKGLRLLIHYTSTLEPGIPSRFSGSGSGRDYSFSISNLEPEDIATYYCLHYDNLLTFGDGTKLELKRTVAAPSVFIFPPSDEQLKSGTASVVCLLNNFYPREAKVQWKVDNALQSGNSQESVTEQDSKDSTYSLSSTLTLSKADYEKHKLYACEVTHQGLSSPVTKSFNRGEC
B4: 人源化单克隆抗体1K3/1H2 (antibody, human IgG1, kappa, V domains shown)
VH: EVKLVESGGGLVQPGGSLKLSCAASGFTFSSFGMNWVRQAPGKGLEWVAYISSGSSIIYYADSVKGRFTISRDNPKNSLYLQMNSLRDEDTAVYYCAREPYGYDVYYFDYWGQGTTVTVSS
VL: DIVMTQSPASLAVSPGQRATISCKASQSIDYDGDSYMNWYQQKPGQPPKLLIYAASNLDTGIPARFSGSGSGTDFTLTISSVEEEDTATYYCQQSNEDPYTFGGGTKVEIKR
B5: 人源化单克隆抗体6K3/3H2 (antibody, human IgG1, kappa, V domains shown)
VH: QVQLVQSGAELKKPGASVKISCKASGFNIKDYYMHWVRQRPEQGLEWIGWIDPENGNTIYAQKFQGRATITADTSTDTAYMELSSLTSEDTAVYYCAREGDGNYLWFAYWGQGTLVTVSS
VL: DIQMTQSPSSLSASLGDKVTITCKASQDINKYIAWYQHKPGKAPKLLIHYTSTLEPGVPSRFSGSGSGTDFTFSISSLEPEDIATYYCLHYDNLLTFGGGTKLEIKR
notes: Humanized from 6K/3H; expressed in 293F cells
B6: 人源化单克隆抗体1K2/1H3 (antibody, human IgG1, kappa, V domains shown)
VH: B4 VH with K3Q, K19R, N35H, A49S, S63T, P75A, Y80F, D88S, T116L
VL: DIVLTQSPASLAVSLGQRATITCKASQSIDYDGDSYLNWYQQKPGQPPKLLIYAASNKDSGVPARFSGSGSGTDFTLTINPVEAEDFAVYYCQQSNEDPYTFGGGTKVEIKR
notes: Humanized from 1K/1H; expressed in 293F cells
B7: 人源化单克隆抗体1K3/1H3 (antibody, human IgG1, kappa, V domains shown)
VH: B4 VH with K3Q, K19R, N35H, A49S, S63T, P75A, Y80F, D88S, T116L
VL: B4 VL
notes: as for B6
B8: 人源化单克隆抗体1K1/1H1 (antibody, human IgG1, kappa, V domains shown)
VH: B4 VH with K3Q, L18R, K19R, G42E, P75A, N84T, D88A, T116L
VL: B6 VL with L4M, L37M, K58L, N80H, A84P, V89T
notes: as for B6
B9: 人源化单克隆抗体1K1/1H3 (antibody, human IgG1, kappa, V domains shown)
VH: B4 VH with K3Q, K19R, N35H, A49S, S63T, P75A, Y80F, D88S, T116L
VL: B6 VL with L4M, L37M, K58L, N80H, A84P, V89T
notes: as for B6
B10: 人源化单克隆抗体1K2/1H1 (antibody, human IgG1, kappa, V domains shown)
VH: B4 VH with K3Q, L18R, K19R, G42E, P75A, N84T, D88A, T116L
VL: B6 VL
notes: as for B6
B11: 人源化单克隆抗体1K3/1H1 (antibody, human IgG1, kappa, V domains shown)
VH: B4 VH with K3Q, L18R, K19R, G42E, P75A, N84T, D88A, T116L
VL: B4 VL
notes: as for B6
B12: 人源化单克隆抗体6K1/3H2 (antibody, human IgG1, kappa, V domains shown)
VH: B5 VH
VL: B5 VL with L15V, D17G, H38Q, A43G, T69R, E79Q, L103V
notes: as for B5
B13: 人源化单克隆抗体6K3/3H3 (antibody, human IgG1, kappa, V domains shown)
VH: EVQLVESGAEVVKPGALVKVSCKASGFNIKDYYMHWVRQRPGQGLEWIGWIDPENGNTIYDQKFQGRVSITADTSTNTAYLELSSLTSEDTAVYYCAREGDGNYLWFAYWGQGTLVTVSS
VL: B5 VL
notes: as for B5
B14: 人源化单克隆抗体6K2/3H3 (antibody, human IgG1, kappa, V domains shown)
VH: B13 VH
VL: DIQLTQSPSSLSASVGDKVIITCKASQDINKYIAWYQQKPGKALKLLIHYTSTLETGVPSRFSGSGSGTDYTFSISNLQPEDIATYYCLHYDNLLTFGGGTKVELKR
notes: as for B5
B15: 人源化单克隆抗体6K3/3H1 (antibody, human IgG1, kappa, V domains shown)
VH: B5 VH with Q3K, K12V, I20L, E42G, I59M, Q62P, T69S, D77N, E82Q, T87R
VL: B5 VL
notes: as for B5
B16: 人源化单克隆抗体6K2/3H1 (antibody, human IgG1, kappa, V domains shown)
VH: B5 VH with Q3K, K12V, I20L, E42G, I59M, Q62P, T69S, D77N, E82Q, T87R
VL: B14 VL
notes: as for B5
B17: 人源化单克隆抗体6K2/3H2 (antibody, human IgG1, kappa, V domains shown)
VH: B5 VH
VL: B14 VL
notes: as for B5
B18: 人源化单克隆抗体6K1/3H3 (antibody, human IgG1, kappa, V domains shown)
VH: B13 VH
VL: B5 VL with L15V, D17G, H38Q, A43G, T69R, E79Q, L103V
notes: as for B5
B19: 人源化单克隆抗体6K1/3H1 (antibody, human IgG1, kappa, V domains shown)
VH: B5 VH with Q3K, K12V, I20L, E42G, I59M, Q62P, T69S, D77N, E82Q, T87R
VL: B5 VL with L15V, D17G, H38Q, A43G, T69R, E79Q, L103V
notes: as for B5

One assay concerns the target T1, 人TSLP (human, UniProt Q969D9 29-159).
T1 construct: also called hTSLP; 人胸腺基质淋巴细胞生成素
Briefly: BLI (ForteBio Blitz). For orientation: In BLI a coated tip is dipped into the sample, and binding shifts an interference pattern.
B1 showed a Kd of 20.1 nM, a koff of 0.00506 s⁻¹ and a kon of 252000 M⁻¹ s⁻¹.
On to B2, for which the Kd amounted to 1.75 nM, the koff came to 0.000732 s⁻¹ and the kon turned out to be 418000 M⁻¹ s⁻¹.

A further assay addresses rhTSLP-hFc (human). Kind of assay: cell-based or functional assay.
Regarding B3, the “IC50, 抑制TSLP刺激的293F转染细胞STAT5-荧光素酶活性” value stood at 0.26 µg/mL.

A further assay has as its target rhTSLP-hFc (human). Kind of assay: cell-based or functional assay. This is another data set of the same source.
Turning to B4, the “IC50, 抑制TSLP刺激的293F转染细胞STAT5-荧光素酶活性” value stood at 3.22 µg/mL.
The same measure, in the same setting: next, B5: 0.182 µg/mL.

A further assay has as its target T2, rhTSLP-mFc融合蛋白 (human).
T2 construct: Expressed in 293F cells and purified on protein A; also called 人重组TSLP蛋白
Briefly: ELISA: rhTSLP-mFc coated, goat anti-human IgG-HRP detection.
Consider B6, for which the binding result was “binds”.
For the molecule B7, the binding result is recorded as “binds”.
For the molecule B8, the binding result was “binds”.
On the same count and under the same terms, the value for B9 was “binds”; that for B10 was “binds”.
Still for that read-out and setting: the value for B11 was “binds”; that for B12 was “binds”.
Turning to B13, the binding result is reported as “binds”.
Consider B14, for which the binding result is given as “binds”.
B15: the binding result is recorded as “binds”.
As for B16, the binding result is “binds”.
In the case of B17, the binding result is listed as “binds”.
Turning to B18, the binding result was “binds”.
B5: the binding result is listed as “binds”.
Consider B19, for which the binding result was “binds”.

The target of another assay is rhTSLP-hFc (human). Kind of assay: competition ELISA: rhTSLP-hFc coated, antibody titrated against 2 μg/ml rhTSLPR-His, anti-His-HRP detection. A general note: ELISA stands for enzyme-linked immunosorbent assay.
Regarding B1, the IC50 worked out at 0.428 µg/mL.
The molecule B2 yielded an IC50 of 0.324 µg/mL.

The next assay addresses rhTSLP-hFc (human). The assay is described as above. This is another data set of the same source.
Consider B3, for which the IC50 turned out to be 0.609 µg/mL.

Usually Kd stands for a measure of binding affinity in units of concentration. One may read the koff as the rate constant with which the complex falls apart. The low end stands for slow dissociation, the high end for fast dissociation. What is called kon is the second-order rate constant of association. In general, IC50 refers to the point on the concentration scale where inhibition reaches its midpoint. Low readings indicate greater potency, high ones weaker potency.
